Measured values taken from the Immune Epitope Database (IEDB).

Columns and labels:
Test in all cases: IEDB peptide-MHC binding, purified MHC/competitive/radioactivity; ≥ and ≤ were set here for values at or beyond the usual limits of such assays
Conditions in all cases: source organism: Homo sapiens
[1] = biological target: HLA-A*02:01
[2] = biological target: HLA-A*24:02
[3] = biological target: HLA-B*08:01
[4] = biological target: HLA-A*03:01
[5] = biological target: HLA-A*11:01
[6] = biological target: HLA-B*07:02
[7] = biological target: HLA-A*01:01
[8] = biological target: HLA-B*35:01
[9] = biological target: HLA-B*51:01
[10] = biological target: HLA-B*18:01

Row | IC50 [1] [nM] | Sequence | further results
1 | 29 | ALARGAGTVPL | 
2 | 76 | ALGDLFQSI | 
3 | 1310 | ALTAVAEEV | 
4 | 1010 | ALWGPDPAAA | 
5 |  | ALWGPDPAAAF | IC50 [2]: 15100 nM
6 |  | ALWMRLLPL | IC50 [3]: 107 nM
7 |  | ALWMRLLPLL | IC50 [2]: 6180 nM; IC50 [3]: 33 nM
8 |  | ALYLVCGER | IC50 [4]: 2790 nM; IC50 [5]: 28300 nM
9 |  | APVIKARMM | IC50 [6]: 18300 nM
10 | 575 | AVAANIVLTV | 
11 | 637 | ELAEYLYNI | 
12 | 7020 | FIQVYEVERA | 
13 | 1.1 | FLFAVGFYL | 
14 | 26 | FLIVLSVAL | 
15 | 16 | FLLSLFSLWL | 
16 | 70 | FLQDVMNIL | 
17 | 26 | FLWSVFMLI | 
18 | 55 | FLWSVFWLI | 
19 | 84 | FMTSSWWRAPL | 
20 |  | FYTPKTRRE | IC50 [3]: 13000 nM
21 |  | GERGFFYT | IC50 [3]: 1380 nM
22 | 5.8 | GLLQVHHSCPL | 
23 |  | GSHLVEALY | IC50 [7]: 30300 nM
24 | 460 | GVFIQVYEV | 
25 | 216 | HIAGSLAVV | 
26 | 4060 | HLASEKVYAI | 

Row | IC50 [1] [nM] | Sequence | further results
27 | 7540 | HLCGSHLVEA | 
28 | 4260 | HLSYHRLLPL | 
29 |  | HPRYFNQLST | IC50 [6]: 1250 nM
30 | 2.2 | ILAVDGVLSV | 
31 | 11200 | ILDKKVEKV | 
32 | 39 | ILKDFSILL | 
33 | 478 | ILMHCQTTL | 
34 | 675 | ILVLASTITI | 
35 |  | IPSDLERRIL | IC50 [6]: 3860 nM
36 | 9040 | IQATVMIIV | 
37 | 97 | KLANIQCLCL | 
38 | 1370 | KLQVFLIVL | 
39 | 880 | KMYAFTLES | 
40 | 11 | KVLHELFGMDI | 
41 | 6930 | LASEKVYAI | 
42 | 5420 | LIFDLGGGT | 
43 | 51 | LLDVAPLSL | 
44 | 233 | LLGRFELIGI | 
45 | 7840 | LLHVHHSCPL | 
46 | 8.1 | LLIDLTSFL | 
47 | 10 | LLLLDVAPL | 
48 | 444 | LLPPLLEHL | 
49 | 35 | LLQEYNWEL | 
50 | 3090 | LLQVHHSCPL | 
51 | 734 | LLSILCIWV | 
52 | 152 | LLSLFSLWL | 

Row | IC50 [1] [nM] | Sequence | further results
53 | 143 | LMFWSPSHSCA | 
54 | 7370 | LMGDKSENV | 
55 | 684 | LNIDLLWSV | 
56 |  | LPLLALLAL | IC50 [6]: 610 nM; IC50 [8]: 12300 nM; IC50 [9]: 1160 nM
57 |  | LVCGERGFFY | IC50 [4]: 27400 nM; IC50 [5]: 27200 nM
58 | 11800 | LVEALYLVC | 
59 |  | LWMRLLPLL | IC50 [2]: 545 nM
60 |  | LYLVCGERGF | IC50 [2]: 5260 nM
61 | 126 | MVWESGCTV | 
62 | 67 | NLAQDLATV | 
63 | 764 | NLLGRFELI | 
64 | 1.8 | NLLGRFELIGI | 
65 |  | RFKMFPEVK | IC50 [5]: 18300 nM
66 | 581 | RLGPVARTRV | 
67 |  | RLLPLLALL | IC50 [2]: 10200 nM
68 | 5.4 | RLLPLWAALPL | 
69 | 124 | RLLYPDYQI | 
70 | 1230 | RLQREWHTL | 
71 | 8230 | RLRPLCCTA | 
72 | 709 | RMMEYGTTMV | 
73 | 2150 | SHLVEALYLV | 
74 | 1560 | SISVLISAL | 
75 | 9.1 | SLASLLPHV | 
76 | 472 | SLEEEIRFL | 
77 | 51 | SLFEGVDFYT | 
78 | 101 | SLSPLQAEL | 

Row | IC50 [1] [nM] | Sequence | further results
79 | 242 | SLTAISTTL | 
80 | 237 | SLTTISTTL | 
81 | 209 | SLYHVYEVNL | 
82 | 1150 | SMCRFSPLTL | 
83 | 631 | SMPQGTFPV | 
84 | 25100 | STVASRLGPV | 
85 | 9230 | STVASWLGPV | 
86 | 1760 | SVASLLPHV | 
87 | 4690 | TIADFWQMV | 
88 | 2780 | TLSSRVCCRT | 
89 | 104 | TMHSLTIQM | 
90 | 7700 | TVASRLGPV | 
91 | 320 | VAANIVLTV | 
92 |  | VCGERGFFYT | IC50 [10]: 626 nM
93 | 2120 | VIVMLTPLV | 
94 | 287 | VLHELFGMDI | 
95 | 1140 | VLNSVASLL | 
96 | 17200 | VLVEGSTRI | 
97 | 2020 | VMNILLQYV | 
98 | 2310 | VMNILLQYVV | 
99 | 9 | VVTGVLVYL | 
100 | 4.2 | WLLPLWAAL | 
101 | 3.2 | WLLPLWAALPL | 
102 |  | WMRLLPLLAL | IC50 [6]: 2360 nM
103 | 9510 | YIPSCTVVGM | 
104 | 57 | YLLLRVLNI | 
